Biological target: the molecule itself
Experiment: native gel or EMSA

B1: MagKatG1, mesophilic catalase–peroxidase from Magnaporthe oryzae (enzyme)
chain: MGECPLRTANVAGGGTRNRDWWPNTLKLNILRQHTEATNPYDPNFDYAEAFKSLDYEGLKKDLRALMTDSQEYWPADFGHYGGLFVRMAWHSAGTYRVMDGRGGGGQGQQRFAPLNSWPDNVSLDKARRLLWPIKQKYGNKISWADLMLLTGNVALEDMGFKTFGFAGGRPDTWEADESTYWGGETTWLGNEVRYSSGNEGHKESGVIDGSESKKGHKDIHTRDLEKPVSAAHMGLIYVNPEGPDGIPDPVAAARDIRTTFSRMAMNDEETVALIAGGHTVGKTHGAAPSDNVGPEPEAAPIENQGLGWSNKHGSGKGPDTITSGLEVIWTKEPAKFTMNYLEYLFKYEWELTKSPAGANQWVAKNAEEFIPDAFDPSKKHKPRMLTTDLSLRFDPEYEKISRRFLENPEQFKDAFARAWFKLLHRDMGPRSRWLGPEVPKETLLWEDPIPTPDHPIIDGSDVDSLKKAILATGVAPSKLIQTAWASASTFRGGDKRGGANGARIRLEPQNKWEVNNPQQLAEVLKALEGVKADFEKSGKKVSIADLIVLAGVAAVEQAAGVPVPFTPGRGDATQEQTDVESFTHLEPAADAFRNYGKGTSRVTTEQIMVDRAQQLTLTAPELTVLVGGLRVLGANYDGSSHGVWTDKPGKLTNDFFVTLLDPYTSWKSVDGEVFEGTNSKSGKKLTGTRADLVFGSHSELRALAEVYGSADGQQKFTKDFVAAWDKVMNLDRFDVRRGIYDETRLKSKL
notes: also called Magnaporthe oryzae katG
For B1, the “stoichiometry N” value was 2.

Reference: article PMC10376177, “Comparison of Fungal Thermophilic and Mesophilic Catalase–Peroxidases for Their Antioxidative Properties” (Antioxidants, 2023)
